Results taken from US20260001928A1 (CORTERIA PHARMACEUTICALS, priority 2022, published 2026).
*1 amine or outer side, *2 acyl side, *3 side chain or, on linkers, in order; H or OH if unused. Side-chain parts run from the residue outwards. [ ]: non-standard residue; d: D form. The star is where a group is joined. C16 diacid = O=C(O)CCCCCCCCCCCCCCC(=O)*; γGlu = O=C(O)[C@H](CCC(=O)[*:2])N[*:1]; C14 diacid = O=C(O)CCCCCCCCCCCCC(=O)*; Api = NC1(C(=O)O)CCNCC1; AEEA = NCCOCCOCC(=O)O; Aib = CC(C)(N)C(=O)O

T1: CRF1R receptor (UniProt P34998 24-415, limits assumed)
T1 sequence (looked up): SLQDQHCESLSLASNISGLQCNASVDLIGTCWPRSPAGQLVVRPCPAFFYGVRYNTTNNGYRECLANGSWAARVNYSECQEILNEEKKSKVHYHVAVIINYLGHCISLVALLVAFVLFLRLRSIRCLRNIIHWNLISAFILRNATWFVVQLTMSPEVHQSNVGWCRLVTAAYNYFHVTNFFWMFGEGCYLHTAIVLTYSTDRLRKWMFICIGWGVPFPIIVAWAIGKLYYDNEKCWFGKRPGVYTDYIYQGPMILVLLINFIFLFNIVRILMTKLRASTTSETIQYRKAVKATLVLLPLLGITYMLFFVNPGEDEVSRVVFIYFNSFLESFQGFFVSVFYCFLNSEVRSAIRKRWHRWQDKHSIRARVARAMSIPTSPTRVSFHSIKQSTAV


Assays:
CRF1R receptor = molecular target: T1, CRF1R receptor; test: cell-based or functional assay
[1] = molecular target: human corticotropin-releasing factor 2a (CRF2a receptor) (human), Q13324; test: cell-based or functional assay
Sequence of human corticotropin-releasing factor 2a (CRF2a receptor) (human), Q13324 (Q13324 20-411): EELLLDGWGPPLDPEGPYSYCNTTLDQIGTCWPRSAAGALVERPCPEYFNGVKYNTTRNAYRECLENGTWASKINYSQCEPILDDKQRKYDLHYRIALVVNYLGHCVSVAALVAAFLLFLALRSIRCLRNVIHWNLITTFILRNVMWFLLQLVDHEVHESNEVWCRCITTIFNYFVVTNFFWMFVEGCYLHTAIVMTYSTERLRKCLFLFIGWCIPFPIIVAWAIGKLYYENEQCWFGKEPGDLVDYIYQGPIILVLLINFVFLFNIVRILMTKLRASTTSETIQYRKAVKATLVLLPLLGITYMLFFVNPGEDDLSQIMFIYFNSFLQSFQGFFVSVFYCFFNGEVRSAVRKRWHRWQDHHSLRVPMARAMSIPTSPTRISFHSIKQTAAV

Row | Emax (% I) (CRF1R receptor) [%] | EC50 [nM] (cAMP) [1] | EC50 (CRF1R receptor) [nM] | Binder
1 | 5 | 18.9 |  | Ac-IVLSLD[dV]PIKLK([AEEA-AEEA-γGlu-γGlu-C14 diacid])KILLEQEKQKKQREQAETN[Api]QILAQV-NH2 (SMILES CC[C@H](C)[C@H](NC(C)=O)C(=O)N[C@H](C(=O)N[C@@H](CC(C)C)C(=O)N[C@@H](CO)C(=O)N[C@@H](CC(C)C)C(=O)N[C@@H](CC(=O)O)C(=O)N[C@@H](C(=O)N1CCC[C@H]1C(=O)N[C@H](C(=O)N[C@@H](CCCCN)C(=O)N[C@@H](CC(C)C)C(=O)N[C@@H](CCCCNC(=O)COCCOCCNC(=O)COCCOCCNC(=O)CC[C@H](NC(=O)CC[C@H](NC(=O)CCCCCCCCCCCCC(=O)O)C(=O)O)C(=O)O)C(=O)N[C@@H](CCCCN)C(=O)N[C@H](C(=O)N[C@@H](CC(C)C)C(=O)N[C@@H](CC(C)C)C(=O)N[C@@H](CCC(=O)O)C(=O)N[C@@H](CCC(N)=O)C(=O)N[C@@H](CCC(=O)O)C(=O)N[C@@H](CCCCN)C(=O)N[C@@H](CCC(N)=O)C(=O)N[C@@H](CCCCN)C(=O)N[C@@H](CCCCN)C(=O)N[C@@H](CCC(N)=O)C(=O)N[C@@H](CCCNC(=N)N)C(=O)N[C@@H](CCC(=O)O)C(=O)N[C@@H](CCC(N)=O)C(=O)N[C@@H](C)C(=O)N[C@@H](CCC(=O)O)C(=O)N[C@H](C(=O)N[C@@H](CC(N)=O)C(=O)NC1(C(=O)N[C@@H](CCC(N)=O)C(=O)N[C@H](C(=O)N[C@@H](CC(C)C)C(=O)N[C@@H](C)C(=O)N[C@@H](CCC(N)=O)C(=O)N[C@H](C(N)=O)C(C)C)[C@@H](C)CC)CCNCC1)[C@@H](C)O)[C@@H](C)CC)[C@@H](C)CC)C(C)C)C(C)C) [SEQ ID NO 175]
2 | 11 | 16.2 | > 250 | Ac-IVLSLD[dV]PIKLK([AEEA-γGlu-γGlu-C14 diacid])KILLEQEKQKKQREQAETN[Aib]QILAQV-NH2 [SEQ ID NO 174]
3 | 5 | 1.28 |  | Ac-IVLSLD[dV]PIKLK([γGlu-C14 diacid])KILLEQEKQK[Aib]QREQAETN[Api]QILAQV-NH2 (SMILES CC[C@H](C)[C@H](NC(C)=O)C(=O)N[C@H](C(=O)N[C@@H](CC(C)C)C(=O)N[C@@H](CO)C(=O)N[C@@H](CC(C)C)C(=O)N[C@@H](CC(=O)O)C(=O)N[C@@H](C(=O)N1CCC[C@H]1C(=O)N[C@H](C(=O)N[C@@H](CCCCN)C(=O)N[C@@H](CC(C)C)C(=O)N[C@@H](CCCCNC(=O)CC[C@H](NC(=O)CCCCCCCCCCCCC(=O)O)C(=O)O)C(=O)N[C@@H](CCCCN)C(=O)N[C@H](C(=O)N[C@@H](CC(C)C)C(=O)N[C@@H](CC(C)C)C(=O)N[C@@H](CCC(=O)O)C(=O)N[C@@H](CCC(N)=O)C(=O)N[C@@H](CCC(=O)O)C(=O)N[C@@H](CCCCN)C(=O)N[C@@H](CCC(N)=O)C(=O)N[C@@H](CCCCN)C(=O)NC(C)(C)C(=O)N[C@@H](CCC(N)=O)C(=O)N[C@@H](CCCNC(=N)N)C(=O)N[C@@H](CCC(=O)O)C(=O)N[C@@H](CCC(N)=O)C(=O)N[C@@H](C)C(=O)N[C@@H](CCC(=O)O)C(=O)N[C@H](C(=O)N[C@@H](CC(N)=O)C(=O)NC1(C(=O)N[C@@H](CCC(N)=O)C(=O)N[C@H](C(=O)N[C@@H](CC(C)C)C(=O)N[C@@H](C)C(=O)N[C@@H](CCC(N)=O)C(=O)N[C@H](C(N)=O)C(C)C)[C@@H](C)CC)CCNCC1)[C@@H](C)O)[C@@H](C)CC)[C@@H](C)CC)C(C)C)C(C)C) [SEQ ID NO 170]
4 | 0 | 5.79 |  | Ac-IVLSLD[dV]PIKLK([AEEA-AEEA-γGlu-C14 diacid])KILLEQEKQKKQREQAETN[Aib]QILAQV-NH2 (SMILES CC[C@H](C)[C@H](NC(C)=O)C(=O)N[C@H](C(=O)N[C@@H](CC(C)C)C(=O)N[C@@H](CO)C(=O)N[C@@H](CC(C)C)C(=O)N[C@@H](CC(=O)O)C(=O)N[C@@H](C(=O)N1CCC[C@H]1C(=O)N[C@H](C(=O)N[C@@H](CCCCN)C(=O)N[C@@H](CC(C)C)C(=O)N[C@@H](CCCCNC(=O)COCCOCCNC(=O)COCCOCCNC(=O)CC[C@H](NC(=O)CCCCCCCCCCCCC(=O)O)C(=O)O)C(=O)N[C@@H](CCCCN)C(=O)N[C@H](C(=O)N[C@@H](CC(C)C)C(=O)N[C@@H](CC(C)C)C(=O)N[C@@H](CCC(=O)O)C(=O)N[C@@H](CCC(N)=O)C(=O)N[C@@H](CCC(=O)O)C(=O)N[C@@H](CCCCN)C(=O)N[C@@H](CCC(N)=O)C(=O)N[C@@H](CCCCN)C(=O)N[C@@H](CCCCN)C(=O)N[C@@H](CCC(N)=O)C(=O)N[C@@H](CCCNC(=N)N)C(=O)N[C@@H](CCC(=O)O)C(=O)N[C@@H](CCC(N)=O)C(=O)N[C@@H](C)C(=O)N[C@@H](CCC(=O)O)C(=O)N[C@H](C(=O)N[C@@H](CC(N)=O)C(=O)NC(C)(C)C(=O)N[C@@H](CCC(N)=O)C(=O)N[C@H](C(=O)N[C@@H](CC(C)C)C(=O)N[C@@H](C)C(=O)N[C@@H](CCC(N)=O)C(=O)N[C@H](C(N)=O)C(C)C)[C@@H](C)CC)[C@@H](C)O)[C@@H](C)CC)[C@@H](C)CC)C(C)C)C(C)C) [SEQ ID NO 171]
5 | 27 | 0.16 | > 250 | Ac-VLSLD[dV]PIKLK([γGlu-C16 diacid])QILLKQERQKKQREQAEKNKQILEQV-NH2 [SEQ ID NO 3]
6 | -1 | 28.1 |  | Ac-IVLSLD[dV]PIKLK([AEEA-AEEA-γGlu-C14 diacid])KILLEQEKQK[Aib]QREQAETN[Api]QILAQV-NH2 (SMILES CC[C@H](C)[C@H](NC(C)=O)C(=O)N[C@H](C(=O)N[C@@H](CC(C)C)C(=O)N[C@@H](CO)C(=O)N[C@@H](CC(C)C)C(=O)N[C@@H](CC(=O)O)C(=O)N[C@@H](C(=O)N1CCC[C@H]1C(=O)N[C@H](C(=O)N[C@@H](CCCCN)C(=O)N[C@@H](CC(C)C)C(=O)N[C@@H](CCCCNC(=O)COCCOCCNC(=O)COCCOCCNC(=O)CC[C@H](NC(=O)CCCCCCCCCCCCC(=O)O)C(=O)O)C(=O)N[C@@H](CCCCN)C(=O)N[C@H](C(=O)N[C@@H](CC(C)C)C(=O)N[C@@H](CC(C)C)C(=O)N[C@@H](CCC(=O)O)C(=O)N[C@@H](CCC(N)=O)C(=O)N[C@@H](CCC(=O)O)C(=O)N[C@@H](CCCCN)C(=O)N[C@@H](CCC(N)=O)C(=O)N[C@@H](CCCCN)C(=O)NC(C)(C)C(=O)N[C@@H](CCC(N)=O)C(=O)N[C@@H](CCCNC(=N)N)C(=O)N[C@@H](CCC(=O)O)C(=O)N[C@@H](CCC(N)=O)C(=O)N[C@@H](C)C(=O)N[C@@H](CCC(=O)O)C(=O)N[C@H](C(=O)N[C@@H](CC(N)=O)C(=O)NC1(C(=O)N[C@@H](CCC(N)=O)C(=O)N[C@H](C(=O)N[C@@H](CC(C)C)C(=O)N[C@@H](C)C(=O)N[C@@H](CCC(N)=O)C(=O)N[C@H](C(N)=O)C(C)C)[C@@H](C)CC)CCNCC1)[C@@H](C)O)[C@@H](C)CC)[C@@H](C)CC)C(C)C)C(C)C) [SEQ ID NO 173]
7 | -6 | 16.1 |  | Ac-IVLSLD[dV]PIKLK([AEEA-AEEA-γGlu-C14 diacid])KILLEQEKQKKQREQAETN[Api]QILAQV-NH2 (SMILES CC[C@H](C)[C@H](NC(C)=O)C(=O)N[C@H](C(=O)N[C@@H](CC(C)C)C(=O)N[C@@H](CO)C(=O)N[C@@H](CC(C)C)C(=O)N[C@@H](CC(=O)O)C(=O)N[C@@H](C(=O)N1CCC[C@H]1C(=O)N[C@H](C(=O)N[C@@H](CCCCN)C(=O)N[C@@H](CC(C)C)C(=O)N[C@@H](CCCCNC(=O)COCCOCCNC(=O)COCCOCCNC(=O)CC[C@H](NC(=O)CCCCCCCCCCCCC(=O)O)C(=O)O)C(=O)N[C@@H](CCCCN)C(=O)N[C@H](C(=O)N[C@@H](CC(C)C)C(=O)N[C@@H](CC(C)C)C(=O)N[C@@H](CCC(=O)O)C(=O)N[C@@H](CCC(N)=O)C(=O)N[C@@H](CCC(=O)O)C(=O)N[C@@H](CCCCN)C(=O)N[C@@H](CCC(N)=O)C(=O)N[C@@H](CCCCN)C(=O)N[C@@H](CCCCN)C(=O)N[C@@H](CCC(N)=O)C(=O)N[C@@H](CCCNC(=N)N)C(=O)N[C@@H](CCC(=O)O)C(=O)N[C@@H](CCC(N)=O)C(=O)N[C@@H](C)C(=O)N[C@@H](CCC(=O)O)C(=O)N[C@H](C(=O)N[C@@H](CC(N)=O)C(=O)NC1(C(=O)N[C@@H](CCC(N)=O)C(=O)N[C@H](C(=O)N[C@@H](CC(C)C)C(=O)N[C@@H](C)C(=O)N[C@@H](CCC(N)=O)C(=O)N[C@H](C(N)=O)C(C)C)[C@@H](C)CC)CCNCC1)[C@@H](C)O)[C@@H](C)CC)[C@@H](C)CC)C(C)C)C(C)C) [SEQ ID NO 172]
